In patent US20240400687A1 (Regeneron, published 2024):

T1: mouse PD1 (mPD1) (mouse, UniProt Q02242 25-288)
T1 construct: whole, on cells; also called murine PD1
T1 sequence (looked up): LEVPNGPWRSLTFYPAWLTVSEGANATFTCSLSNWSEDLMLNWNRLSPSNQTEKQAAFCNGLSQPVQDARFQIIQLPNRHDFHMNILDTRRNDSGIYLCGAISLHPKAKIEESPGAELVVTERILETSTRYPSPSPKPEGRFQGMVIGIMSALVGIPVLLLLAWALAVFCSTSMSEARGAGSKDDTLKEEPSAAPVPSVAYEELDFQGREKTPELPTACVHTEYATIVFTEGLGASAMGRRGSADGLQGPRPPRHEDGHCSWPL


What was measured:
mouse PD1 (mPD1) [1] = biological target: T1, mouse PD1 (mPD1); experiment: flow cytometry on Jurkat/mPD1 cells
Experimental: Cells (HEK 293, MC38 over-expressing mCD20, or Jurkat over-expressing mPD1) were resuspended in FACS wash (PBS with 1% FBS) at 1×10⁶ cells/mL. The staining was performed in 1×10⁵ cells per well. The antibodies were diluted with a ratio of 1:5 from a starting concentration of 1.3×10⁻⁰⁷ M. The diluted antibodies were then added into the wells containing cells. Cells were stained for 30 min at 2-8° C. and washed twice with FACS wash buffer. APC-conjugated goat anti-human IgG (Jackson Immuno Research, 109-607-003, 1:400) or AF647-conjugated goat anti-mFc Fab (Jackson Immuno Research, 115-607-185, 1:400) was added to stain the cells for 30 min at 2-8° C. Following washing, cells were fixed in 2% paraformaldehyde for 30 min at 2-8° C. After two washes, stained cells were analyzed using BD LSRFortessa™ FACS instrument. The results were analyzed by FlowJo. FSC/SSC gates were used to select mononuclear cells.

mouse PD1 (mPD1) [2] = biological target: T1, mouse PD1 (mPD1); experiment: cell-based or functional assay

binding result (mouse PD1 (mPD1) [1]) | Max % inhibition, luciferase bioassay, 1 nM CD3 bsAb (mouse PD1 (mPD1) [2]) [%] | Binder
no binding |  | 18B12-scFvFc (scFv, V domains shown) VH: QVQLQQPGAELVRPGTSVKLSCKASGYTFTSYWMHWIKQRPGQGLEWIGVIDPSDNYTKYNQKFKGKATLTVDTSSSTAYMQLSSLTSEDSAVYFCAREGYYGSSPWFAYWGQGTLVTVSS VL: QIVMSQSPAILSASPGEKVTMTCRARSSVSYIHWYQQKPGSSPKPWIYATSNLASGVPGRFSGSGSGTSYSLTITRVEAEDAATYYCQQWSSKPPTFGGGTKLEIK
no binding | 19 | 1B12IgG1EN (antibody, IgG, mCD20 x mCD20, 145.3 kDa; also called Molecule ID M) heavy 1: QVQLQQPGAELVRPGTSVKLSCKASGYTFTSYWMHWIKQRPGQGLEWIGVIDPSDNYTKYNQKFKGKATLTVDTSSSTAYMQLSSLTSEDSAVYFCAREGYYGSSPWFAYWGQGTLVTVSSASTKGPSVFPLAPSSKSTSGGTAALGCLVKDYFPEPVTVSWNSGALTSGVHTFPAVLQSSGLYSLSSVVTVPSSSLGTQTYICNVNHKPSNTKVDKKVEPKSCDKTHTCPPCPAPEAEGAPSVFLFPPKPKDTLMISRTPEVTCVVVDVSHEDPEVKFNWYVDGVEVHNAKTKPREEQYNSTYRVVSVLTVLHQDWLNGKEYKCKVSNKALPSSIEKTISKAKGQPREPQVYTLPPCRDELTKNQVSLWCLVKGFYPSDIAVEWESNGQPENNYKTTPPVLDSDGSFFLYSKLTVDKSRWQQGNVFSCSVMHEALHNHYTQKSLSLSPGK heavy 2: QVQLQQPGAELVRPGTSVKLSCKASGYTFTSYWMHWIKQRPGQGLEWIGVIDPSDNYTKYNQKFKGKATLTVDTSSSTAYMQLSSLTSEDSAVYFCAREGYYGSSPWFAYWGQGTLVTVSSASTKGPSVFPLAPSSKSTSGGTAALGCLVKDYFPEPVTVSWNSGALTSGVHTFPAVLQSSGLYSLSSVVTVPSSSLGTQTYICNVNHKPSNTKVDKKVEPKSCDKTHTCPPCPAPEAEGAPSVFLFPPKPKDTLMISRTPEVTCVVVDVSHEDPEVKFNWYVDGVEVHNAKTKPREEQYNSTYRVVSVLTVLHQDWLNGKEYKCKVSNKALPSSIEKTISKAKGQPREPQVCTLPPSRDELTKNQVSLSCAVKGFYPSDIAVEWESNGQPENNYKTTPPVLDSDGSFFLVSKLTVDKSRWQQGNVFSCSVMHEALHNRFTQKSLSLSPGK light: QIVMSQSPAILSASPGEKVTMTCRARSSVSYIHWYQQKPGSSPKPWIYATSNLASGVPGRFSGSGSGTSYSLTITRVEAEDAATYYCQQWSSKPPTFGGGTKLEIKRTVAAPSVFIFPPSDEQLKSGTASVVCLLNNFYPREAKVQWKVDNALQSGNSQESVTEQDSKDSTYSLSSTLTLSKADYEKHKVYACEVTHQGLSSPVTKSFNRGEC
